Data taken from patent US20250043302A1, “MUTATED HYDROXYPHENYLPYRUVATE DIOXYGENASE POLYPEPTIDE, AND CODING GENE AND USE THEREOF” (BEIJING DABEINONG BIOTECHNOLOGY CO., LTD., priority 2021, published 2025).
Where a chain is given by its changes, count along the chain named. In names and notes the source's numbering stands.

B1: GsHPPD-02: nucleotide sequence encoding wild-type Gossypium hirsutum HPPD; vector DBN11738 (nucleic acid)
DNA: ATGGTTCAAACAAATCAATCTGGTTCTGGGAATGATTTCAAGCTGGTTGGTTTCTCAAATTTTGTGCGTAGCAATCCCAAATCAGACCGCTTCACGGTCAAGAGATTCCACCACATTGAATTTTGGTGCACTGATGCCACTAATGTGGCGAGGAGGTTTTCATGGGGTTTAGGGATGCAGTTCGTCGCCAAGAGTGACCTCTCCACAGGAAATTTGACGCATGCAAGCTACCTGCTGCGGAGCCGCGACTTGAATTTCCTGTTTACAGCACCATATTCACCCAGTATTGCAGTTGCTCAAAACCTTTCGCCACAAAGCACTGCTTCCATACCTTCATTTGATCACTCGCTTTGTCGGTCCTTTGCTGCAACACATGGACTTGGCGTCAGAGCAATTGCCATCGAGGTGGACGACGCCGAAACTGCCTTCACCACGAGCGTGACACATGGCGCGCTCCCTTTTTGTCCACCAACACCACTAGGAGATGTGGCTACAATTGCTGAAGTTAAATTATATGGTGATGTTGTGCTCAGATATGTTTCTTACACCACAACCATCAACTCCGACCATGATTTTCTGCCTGGTTTTGAGAAGATTGAAGATACTCTATCGTATCCTTTGGATTATGGCCTGCGTCGGCTCGATCATGCTGTTGGCAACGTACCTGAATTAGGTCCTGCTGTATCTTATGTGAAATCTTTTACTGGGTTCCATGAGTTTGCAGAGTTCACCGCTGAGGATGTAGGAACAAGTGAATCTGGGCTGAACTCAGTTGTTTTGGCCAACAATGAGGAAATGGTCCTCTTACCAATGAACGAGCCGGTGTTCGGCACTAAGCGCAAATCTCAAATACAGACCTACTTGGAGCACAATGAAGGAGCTGGTGTGCAGCACCTCGCCCTCGTCTCGGAGGACATCTTCAAAACTTTAAGGGAGATGAGGAAACGATCCTTTGTGGGAGGATTTGAATTCATGCCTTCTCCGCCGCCGACATACTACAAGAAGCTCAAGCAGCGCGCGGGGGACATTTTGTCTGATGAGCAGATCAAGGAGTGTGAAGAGCTTGGGATTCTTGTTGATAGAGATGATCAAGGAACGCTTCTGCAGATATTTACCAAGCCCGTCGGCGACCGGCCTACTATATTCATTGAGATCATCCAGAGAATTGGTTGCATGGTGAAGGATGAAGAAGGGAAACAGTACCAGAAGGGCGGCTGCGGCGGGTTTGGAAAAGGAAACTTCAGTGAGCTGTTTAAAAGTATAGAGGAGTATGAAAAGAGCTTGGAAGCAAAACAATCACAAAATCCATGA
modifications: GsHPPD-02 Nucleotide Sequence
notes: vector DBN11738
B2: GsHPPDm-F372A-F383W-02: nucleotide sequence encoding Gossypium hirsutum HPPD with F372A+F383W; vector DBN11741 (nucleic acid)
DNA: B1 DNA with T1111G, T1112C, T1113C, T1145G, C1146G
modifications: GsHPPDm-F372A-F383W-02 Nucleotide Sequence
notes: vector DBN11741
B3: GsHPPDm-F372A-02: nucleotide sequence encoding Gossypium hirsutum HPPD with F372A; vector DBN11739 (nucleic acid)
DNA: B1 DNA with T1111G, T1112C, T1113C
modifications: GsHPPDm-F372A-02 Nucleotide Sequence
notes: vector DBN11739

Tested on: Arabidopsis thaliana T1 plants
Test: Topramezone tolerance of transgenic Arabidopsis thaliana T1 plants (spray, bleached leaf area grade, damage score)
Assay type: in vivo
Conditions: number of plants; topramezone 25 g ai/ha (1×), 7 DAT; Table 4
How it was run: (§1)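 Read-out: per-plant damage grade 0–3 from proportion of bleached leaf area at 7 DAT (1 <50%, 2 >50%, 3 100%). Plants were T1 transformants, glufosinate-selected, plus wild-type CK, sprayed 18 days post-sowing. Rates: topramezone 25–200, isoxaflutole 35–280, mesotrione 52.5–420 g ai/ha.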

First: B1
Second: B2
The “Classification and statistics of the grade of pesticide damage: Grade 0” value of the first is lower: 0 for the first, 16 for the second.

B3 was tested, and the “Classification and statistics of the grade of pesticide damage: Grade 0” value was 16.

B1 and B2 are the same in “Classification and statistics of the grade of pesticide damage: Grade 1” value: 0 for the first, 0 for the second.

With B3 the “Classification and statistics of the grade of pesticide damage: Grade 1” value was 0.

B1 and B2 are the same in “Classification and statistics of the grade of pesticide damage: Grade 2” value: 0 for the first, 0 for the second.

In the case of B3, the “Classification and statistics of the grade of pesticide damage: Grade 2” value is reported as 0.

Compared with B1, B2 is lower in “Classification and statistics of the grade of pesticide damage: Grade 3” value: 16 for the first, 0 for the second.

In the case of B3, the “Classification and statistics of the grade of pesticide damage: Grade 3” value is reported as 0.

Same assay, conditions: number of plants; topramezone 100 g ai/ha (4×), 7 DAT; Table 4

Compared with B1, B2 is higher in “Classification and statistics of the grade of pesticide damage: Grade 0” value: 0 for the first, 5 for the second.

B3 was tested, and the “Classification and statistics of the grade of pesticide damage: Grade 0” value was 0.

First: B1
Second: B2
The “Classification and statistics of the grade of pesticide damage: Grade 1” value of the first is lower: 0 for the first, 7 for the second.

In the case of B3, the “Classification and statistics of the grade of pesticide damage: Grade 1” value is reported as 0.

First: B1
Second: B2
The “Classification and statistics of the grade of pesticide damage: Grade 2” value of the first is lower: 0 for the first, 2 for the second.

For B3, the “Classification and statistics of the grade of pesticide damage: Grade 2” value was 0.

Compared with B1, B2 is lower in “Classification and statistics of the grade of pesticide damage: Grade 3” value: 16 for the first, 2 for the second.

For B3, the “Classification and statistics of the grade of pesticide damage: Grade 3” value was 16.

Same assay, conditions: pesticide damage score 0-100; topramezone 25 g ai/ha (1×), 7 DAT; Table 4

First: B1
Second: B2
The Scores of the first is higher: 100 for the first, 0 for the second.

In the case of B3, the Scores is reported as 0.

Same assay, conditions: pesticide damage score 0-100; topramezone 100 g ai/ha (4×), 7 DAT; Table 4

First: B1
Second: B2
The Scores of the first is higher: 100 for the first, 35 for the second.

For B3, the Scores was 100.

Same assay, conditions: topramezone 25 g ai/ha (1×), 7 DAT; Table 4

With B1 the Resistance evaluation was “non-resistant (non-resistant plants (scores 68-100))”.
For B2, the Resistance evaluation was “highly”.
With B3 the Resistance evaluation was “highly”.

Same assay, conditions: topramezone 100 g ai/ha (4×), 7 DAT; Table 4

B1 was tested, and the Resistance evaluation was “non-resistant (non-resistant plants (scores 68-100))”.
For B2, the Resistance evaluation was “poorly”.
For B3, the Resistance evaluation was “non-resistant (non-resistant plants (scores 68-100))”.

Tested on: Arabidopsis thaliana T1 plants
Test: Isoxaflutole tolerance of transgenic Arabidopsis thaliana T1 plants (spray, bleached leaf area grade, damage score)
Assay type: in vivo
Set-up: Scores (pesticide damage): scale not given here
Conditions: isoxaflutole 35 g ai/ha (0.5x field concentration), spray, Arabidopsis thaliana T1 plants
How it was run: as §1

With B1 the Resistance evaluation was “Non-resistant”.
B2 was tested, and the Resistance evaluation was “Highly”.
With B3 the Resistance evaluation was “Moderately”.

Going from B1 to B2, the “Scores (pesticide damage)” value falls from 100 to 15.

In the case of B3, the “Scores (pesticide damage)” value is reported as 33.

Same assay, conditions: isoxaflutole 35 g ai/ha (0.5x field concentration), spray, Arabidopsis thaliana T1 plants, 16 plants

First: B1
Second: B2
The “Classification and statistics of the grade of pesticide damage: Grade 0 (number of plants)” value of the first is lower: 0 for the first, 9 for the second.

With B3 the “Classification and statistics of the grade of pesticide damage: Grade 0 (number of plants)” value was 3.

Compared with B1, B2 is higher in “Classification and statistics of the grade of pesticide damage: Grade 1 (number of plants)” value: 0 for the first, 7 for the second.

B3 was tested, and the “Classification and statistics of the grade of pesticide damage: Grade 1 (number of plants)” value was 10.

B1 and B2 are the same in “Classification and statistics of the grade of pesticide damage: Grade 2 (number of plants)” value: 0 for the first, 0 for the second.

With B3 the “Classification and statistics of the grade of pesticide damage: Grade 2 (number of plants)” value was 3.

Going from B1 to B2, the “Classification and statistics of the grade of pesticide damage: Grade 3 (number of plants)” value falls from 16 to 0.

In the case of B3, the “Classification and statistics of the grade of pesticide damage: Grade 3 (number of plants)” value is reported as 0.

Same assay, conditions: isoxaflutole 70 g ai/ha (1x field concentration), spray, Arabidopsis thaliana T1 plants

B1 was tested, and the Resistance evaluation was “Non-resistant”.
B2 was tested, and the Resistance evaluation was “Poorly”.
With B3 the Resistance evaluation was “Non-resistant”.

Compared with B1, B2 is lower in “Scores (pesticide damage)” value: 100 for the first, 48 for the second.

With B3 the “Scores (pesticide damage)” value was 100.

Same assay, conditions: isoxaflutole 70 g ai/ha (1x field concentration), spray, Arabidopsis thaliana T1 plants, 16 plants

Going from B1 to B2, the “Classification and statistics of the grade of pesticide damage: Grade 0 (number of plants)” value rises from 0 to 3.

With B3 the “Classification and statistics of the grade of pesticide damage: Grade 0 (number of plants)” value was 0.

Going from B1 to B2, the “Classification and statistics of the grade of pesticide damage: Grade 1 (number of plants)” value rises from 0 to 5.

In the case of B3, the “Classification and statistics of the grade of pesticide damage: Grade 1 (number of plants)” value is reported as 0.

First: B1
Second: B2
The “Classification and statistics of the grade of pesticide damage: Grade 2 (number of plants)” value of the first is lower: 0 for the first, 6 for the second.

B3 was tested, and the “Classification and statistics of the grade of pesticide damage: Grade 2 (number of plants)” value was 0.

First: B1
Second: B2
The “Classification and statistics of the grade of pesticide damage: Grade 3 (number of plants)” value of the first is higher: 16 for the first, 2 for the second.

B3 was tested, and the “Classification and statistics of the grade of pesticide damage: Grade 3 (number of plants)” value was 16.

Tested on: Arabidopsis thaliana T1 plants
Test: Mesotrione tolerance of transgenic Arabidopsis thaliana T1 plants (spray, bleached leaf area grade, damage score)
Assay type: in vivo
Set-up: Scores: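 damage score 0-100 computed as Σ(N×S)/(T×M)×100 over grades 0-3 with higher meaning more damage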
Conditions: mesotrione 52.5 g ai/ha; Arabidopsis thaliana T1 plants
How it was run: as §1

B1 was tested, and the Resistance evaluation was “Non-resistant”.
In the case of B2, the Resistance evaluation is reported as “Moderately”.
In the case of B3, the Resistance evaluation is reported as “Poorly resistant”.

Going from B1 to B2, the Scores falls from 100 to 33.

Molecule B3 has a Scores of 54.

Same assay, conditions: mesotrione 52.5 g ai/ha; Arabidopsis thaliana T1 plants; 16 plants

First: B1
Second: B2
The “Grade 0 (classification and statistics of the grade of pesticide damage; number of plants)” value of the first is lower: 0 for the first, 3 for the second.

In the case of B3, the “Grade 0 (classification and statistics of the grade of pesticide damage; number of plants)” value is reported as 0.

First: B1
Second: B2
The “Grade 1 (classification and statistics of the grade of pesticide damage; number of plants)” value of the first is lower: 0 for the first, 10 for the second.

With B3 the “Grade 1 (classification and statistics of the grade of pesticide damage; number of plants)” value was 8.

Going from B1 to B2, the “Grade 2 (classification and statistics of the grade of pesticide damage; number of plants)” value rises from 0 to 3.

In the case of B3, the “Grade 2 (classification and statistics of the grade of pesticide damage; number of plants)” value is reported as 6.

Compared with B1, B2 is lower in “Grade 3 (classification and statistics of the grade of pesticide damage; number of plants)” value: 16 for the first, 0 for the second.

For B3, the “Grade 3 (classification and statistics of the grade of pesticide damage; number of plants)” value was 2.

Same assay, conditions: mesotrione 105 g ai/ha; Arabidopsis thaliana T1 plants

With B1 the Resistance evaluation was “Non-resistant”.
B2 was tested, and the Resistance evaluation was “Non-resistant”.
For B3, the Resistance evaluation was “Non-resistant”.

Going from B1 to B2, the Scores falls from 100 to 77.

For B3, the Scores was 100.

Same assay, conditions: mesotrione 105 g ai/ha; Arabidopsis thaliana T1 plants; 16 plants

B1 and B2 are the same in “Grade 0 (classification and statistics of the grade of pesticide damage; number of plants)” value: 0 for the first, 0 for the second.

In the case of B3, the “Grade 0 (classification and statistics of the grade of pesticide damage; number of plants)” value is reported as 0.

B1 and B2 are the same in “Grade 1 (classification and statistics of the grade of pesticide damage; number of plants)” value: 0 for the first, 0 for the second.

B3 was tested, and the “Grade 1 (classification and statistics of the grade of pesticide damage; number of plants)” value was 0.

Going from B1 to B2, the “Grade 2 (classification and statistics of the grade of pesticide damage; number of plants)” value rises from 0 to 11.

For B3, the “Grade 2 (classification and statistics of the grade of pesticide damage; number of plants)” value was 0.

First: B1
Second: B2
The “Grade 3 (classification and statistics of the grade of pesticide damage; number of plants)” value of the first is higher: 16 for the first, 5 for the second.

In the case of B3, the “Grade 3 (classification and statistics of the grade of pesticide damage; number of plants)” value is reported as 16.
